Test results from patent US20190233519A1 (NANJING LEGEND BIOTECH, published 2019).

B1: AS07014 HCAb (Fc fusion)
heavy: QVHLVESGGGSVQAGGSLRLSCAASGYTYSRHCLGWFRQTPGKEREAVATIDSDGSTSYADSVKGRFTISSDNAKNTLYLQMNSLKPEDTAMYYCAIGPNPRYCSGAPNTRGAEHYFGYWAQGTQVTVSS
notes: not shown: human IgG1 Fc
B2: AS07189 HCAb (Fc fusion)
heavy: QVQLVESGGGSVQAGGSLRLSCAASGDSPSVNYMGWFRRAPEKQREQREEVASIYPTGGTFYTDSVKGRFTISRDNAKNTLYLQMTALKPEDTAMYYCAAGKWGTDYWGQGTQVIVSS
notes: not shown: human IgG1 Fc
B3: BCP-73 (A34311VH11-mutated hIgG1 hinge-Keytruda) (bispecific antibody)
heavy: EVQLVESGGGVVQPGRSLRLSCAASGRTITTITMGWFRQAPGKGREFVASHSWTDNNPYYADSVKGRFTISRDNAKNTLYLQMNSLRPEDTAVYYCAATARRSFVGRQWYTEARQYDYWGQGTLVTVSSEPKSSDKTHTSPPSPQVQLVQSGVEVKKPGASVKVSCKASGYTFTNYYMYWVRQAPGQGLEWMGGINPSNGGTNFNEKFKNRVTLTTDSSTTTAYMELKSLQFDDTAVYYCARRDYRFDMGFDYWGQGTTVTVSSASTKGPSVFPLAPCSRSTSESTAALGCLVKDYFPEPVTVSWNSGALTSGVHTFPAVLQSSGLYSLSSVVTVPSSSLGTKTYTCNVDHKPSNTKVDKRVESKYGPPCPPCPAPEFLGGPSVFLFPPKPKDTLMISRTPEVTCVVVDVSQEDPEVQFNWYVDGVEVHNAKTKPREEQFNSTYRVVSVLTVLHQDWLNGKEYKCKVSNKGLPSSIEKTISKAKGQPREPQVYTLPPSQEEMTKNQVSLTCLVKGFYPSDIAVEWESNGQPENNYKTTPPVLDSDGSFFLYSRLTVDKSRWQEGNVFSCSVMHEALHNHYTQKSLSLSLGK
light: EIVLTQSPATLSLSPGERATLSCRASKGVSTSGYSYLHWYQQKPGQAPRLLIYLASYLESGVPARFSGSGSGTDFTLTISSLEPEDFAVYYCQHSRDLPLTFGGGTKVEIKRTVAAPSVFIFPPSDEQLKSGTASVVCLLNNFYPREAKVQWKVDNALQSGNSQESVTEQDSKDSTYSLSSTLTLSKADYEKHKVYACEVTHQGLSSPVTKSFNRGEC
B4: BCP-74 (AS07014VH11-mutated hIgG1 hinge-Keytruda) (bispecific antibody)
heavy: not shown
light: B3 light
B5: BCP-75 (AS07189TKDVH11-mutated hIgG1 hinge-Keytruda) (bispecific antibody)
heavy: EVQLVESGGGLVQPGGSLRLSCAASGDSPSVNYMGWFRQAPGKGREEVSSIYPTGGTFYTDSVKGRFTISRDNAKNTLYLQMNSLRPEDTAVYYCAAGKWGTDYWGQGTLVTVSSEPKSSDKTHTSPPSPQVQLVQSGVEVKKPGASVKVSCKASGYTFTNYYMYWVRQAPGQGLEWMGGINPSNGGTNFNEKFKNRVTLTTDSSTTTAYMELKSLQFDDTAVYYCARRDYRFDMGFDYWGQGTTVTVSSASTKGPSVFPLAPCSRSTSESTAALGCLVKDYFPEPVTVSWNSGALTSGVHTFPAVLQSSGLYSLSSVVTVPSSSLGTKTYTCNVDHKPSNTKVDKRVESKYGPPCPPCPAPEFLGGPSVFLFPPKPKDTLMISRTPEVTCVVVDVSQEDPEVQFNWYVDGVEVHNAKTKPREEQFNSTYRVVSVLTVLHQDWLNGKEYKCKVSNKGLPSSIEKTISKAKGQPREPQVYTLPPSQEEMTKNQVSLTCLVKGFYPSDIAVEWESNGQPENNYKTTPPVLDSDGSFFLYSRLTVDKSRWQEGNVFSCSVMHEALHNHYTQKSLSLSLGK
light: B3 light
B6: BCP-2 (BCP-K311) (Keytruda-9GS-A34311) (bispecific antibody, human IgG4 S228P, kappa)
heavy: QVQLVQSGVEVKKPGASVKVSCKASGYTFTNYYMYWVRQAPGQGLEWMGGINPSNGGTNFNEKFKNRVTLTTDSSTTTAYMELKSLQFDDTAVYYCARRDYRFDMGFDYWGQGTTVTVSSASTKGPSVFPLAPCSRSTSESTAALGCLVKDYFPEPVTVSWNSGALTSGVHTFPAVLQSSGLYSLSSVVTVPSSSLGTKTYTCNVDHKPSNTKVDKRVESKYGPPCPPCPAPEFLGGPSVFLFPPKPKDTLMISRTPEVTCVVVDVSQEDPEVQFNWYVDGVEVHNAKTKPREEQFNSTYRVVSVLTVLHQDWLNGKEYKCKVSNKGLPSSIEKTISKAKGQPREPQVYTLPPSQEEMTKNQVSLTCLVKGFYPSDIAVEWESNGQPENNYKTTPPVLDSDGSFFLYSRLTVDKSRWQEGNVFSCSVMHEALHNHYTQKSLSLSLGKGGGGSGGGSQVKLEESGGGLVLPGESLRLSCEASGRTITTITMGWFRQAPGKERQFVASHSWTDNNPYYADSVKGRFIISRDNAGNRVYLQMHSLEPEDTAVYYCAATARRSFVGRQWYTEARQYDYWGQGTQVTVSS
light: B3 light
B7: BCP-16 (A34311-hIgG1 hinge-Keytruda) (bispecific antibody)
heavy: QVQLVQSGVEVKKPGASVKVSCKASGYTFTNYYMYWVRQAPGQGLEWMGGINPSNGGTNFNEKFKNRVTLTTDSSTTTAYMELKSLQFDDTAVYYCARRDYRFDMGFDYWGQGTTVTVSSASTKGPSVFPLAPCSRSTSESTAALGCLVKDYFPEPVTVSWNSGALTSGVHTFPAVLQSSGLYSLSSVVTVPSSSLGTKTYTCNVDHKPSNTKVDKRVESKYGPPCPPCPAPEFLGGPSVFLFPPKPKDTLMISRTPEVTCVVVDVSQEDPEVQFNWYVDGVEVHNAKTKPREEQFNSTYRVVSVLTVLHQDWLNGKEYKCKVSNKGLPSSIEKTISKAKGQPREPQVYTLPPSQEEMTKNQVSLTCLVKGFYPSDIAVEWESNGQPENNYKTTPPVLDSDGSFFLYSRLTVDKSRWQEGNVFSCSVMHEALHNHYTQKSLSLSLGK
light: QVKLEESGGGLVLPGESLRLSCEASGRTITTITMGWFRQAPGKERQFVASHSWTDNNPYYADSVKGRFIISRDNAGNRVYLQMHSLEPEDTAVYYCAATARRSFVGRQWYTEARQYDYWGQGTQVTVSSEPKSCDKTHTCPPCPEIVLTQSPATLSLSPGERATLSCRASKGVSTSGYSYLHWYQQKPGQAPRLLIYLASYLESGVPARFSGSGSGTDFTLTISSLEPEDFAVYYCQHSRDLPLTFGGGTKVEIKRTVAAPSVFIFPPSDEQLKSGTASVVCLLNNFYPREAKVQWKVDNALQSGNSQESVTEQDSKDSTYSLSSTLTLSKADYEKHKVYACEVTHQGLSSPVTKSFNRGEC
B8: BCP-17 (Keytruda-hIgG1 hinge-A34311) (bispecific antibody)
heavy: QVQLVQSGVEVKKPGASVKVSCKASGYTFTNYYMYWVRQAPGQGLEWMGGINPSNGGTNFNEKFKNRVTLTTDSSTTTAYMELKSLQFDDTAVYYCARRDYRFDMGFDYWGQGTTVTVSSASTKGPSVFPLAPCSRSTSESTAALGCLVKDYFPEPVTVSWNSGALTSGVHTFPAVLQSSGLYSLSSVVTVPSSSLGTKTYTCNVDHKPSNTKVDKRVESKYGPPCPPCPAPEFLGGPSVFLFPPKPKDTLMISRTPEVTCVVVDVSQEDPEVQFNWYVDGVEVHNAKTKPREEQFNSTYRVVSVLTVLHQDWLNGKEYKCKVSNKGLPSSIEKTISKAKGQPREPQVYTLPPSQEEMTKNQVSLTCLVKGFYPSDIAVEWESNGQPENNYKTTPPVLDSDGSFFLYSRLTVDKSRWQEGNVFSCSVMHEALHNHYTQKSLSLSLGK
light: EIVLTQSPATLSLSPGERATLSCRASKGVSTSGYSYLHWYQQKPGQAPRLLIYLASYLESGVPARFSGSGSGTDFTLTISSLEPEDFAVYYCQHSRDLPLTFGGGTKVEIKRTVAAPSVFIFPPSDEQLKSGTASVVCLLNNFYPREAKVQWKVDNALQSGNSQESVTEQDSKDSTYSLSSTLTLSKADYEKHKVYACEVTHQGLSSPVTKSFNRGECEPKSCDKTHTCPPCPQVKLEESGGGLVLPGESLRLSCEASGRTITTITMGWFRQAPGKERQFVASHSWTDNNPYYADSVKGRFIISRDNAGNRVYLQMHSLEPEDTAVYYCAATARRSFVGRQWYTEARQYDYWGQGTQVTVSS
B9: BCP-31 (A34311-9GS linker-Keytruda) (bispecific antibody, human IgG4 S228P, kappa)
heavy: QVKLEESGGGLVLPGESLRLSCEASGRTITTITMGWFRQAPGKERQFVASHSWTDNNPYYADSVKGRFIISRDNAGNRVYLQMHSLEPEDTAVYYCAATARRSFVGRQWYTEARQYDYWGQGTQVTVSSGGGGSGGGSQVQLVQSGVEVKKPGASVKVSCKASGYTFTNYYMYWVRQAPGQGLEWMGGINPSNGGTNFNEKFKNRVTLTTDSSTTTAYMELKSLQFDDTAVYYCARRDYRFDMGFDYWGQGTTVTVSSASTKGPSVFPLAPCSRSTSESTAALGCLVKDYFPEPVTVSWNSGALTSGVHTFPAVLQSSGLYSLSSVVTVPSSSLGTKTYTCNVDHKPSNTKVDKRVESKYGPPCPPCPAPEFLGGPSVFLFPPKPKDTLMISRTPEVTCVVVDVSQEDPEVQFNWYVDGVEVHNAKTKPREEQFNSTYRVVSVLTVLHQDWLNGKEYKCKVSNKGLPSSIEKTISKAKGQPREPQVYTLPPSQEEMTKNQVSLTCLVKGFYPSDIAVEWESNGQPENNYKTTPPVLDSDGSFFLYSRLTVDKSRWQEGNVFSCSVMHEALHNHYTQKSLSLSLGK
light: QVKLEESGGGLVLPGESLRLSCEASGRTITTITMGWFRQAPGKERQFVASHSWTDNNPYYADSVKGRFIISRDNAGNRVYLQMHSLEPEDTAVYYCAATARRSFVGRQWYTEARQYDYWGQGTQVTVSSGGGGSGGGSEIVLTQSPATLSLSPGERATLSCRASKGVSTSGYSYLHWYQQKPGQAPRLLIYLASYLESGVPARFSGSGSGTDFTLTISSLEPEDFAVYYCQHSRDLPLTFGGGTKVEIKRTVAAPSVFIFPPSDEQLKSGTASVVCLLNNFYPREAKVQWKVDNALQSGNSQESVTEQDSKDSTYSLSSTLTLSKADYEKHKVYACEVTHQGLSSPVTKSFNRGEC
B10: BCP-32 (A34311-9GS linker-A34311-9GS linker-Keytruda) (bispecific antibody, human IgG4 S228P, kappa)
heavy: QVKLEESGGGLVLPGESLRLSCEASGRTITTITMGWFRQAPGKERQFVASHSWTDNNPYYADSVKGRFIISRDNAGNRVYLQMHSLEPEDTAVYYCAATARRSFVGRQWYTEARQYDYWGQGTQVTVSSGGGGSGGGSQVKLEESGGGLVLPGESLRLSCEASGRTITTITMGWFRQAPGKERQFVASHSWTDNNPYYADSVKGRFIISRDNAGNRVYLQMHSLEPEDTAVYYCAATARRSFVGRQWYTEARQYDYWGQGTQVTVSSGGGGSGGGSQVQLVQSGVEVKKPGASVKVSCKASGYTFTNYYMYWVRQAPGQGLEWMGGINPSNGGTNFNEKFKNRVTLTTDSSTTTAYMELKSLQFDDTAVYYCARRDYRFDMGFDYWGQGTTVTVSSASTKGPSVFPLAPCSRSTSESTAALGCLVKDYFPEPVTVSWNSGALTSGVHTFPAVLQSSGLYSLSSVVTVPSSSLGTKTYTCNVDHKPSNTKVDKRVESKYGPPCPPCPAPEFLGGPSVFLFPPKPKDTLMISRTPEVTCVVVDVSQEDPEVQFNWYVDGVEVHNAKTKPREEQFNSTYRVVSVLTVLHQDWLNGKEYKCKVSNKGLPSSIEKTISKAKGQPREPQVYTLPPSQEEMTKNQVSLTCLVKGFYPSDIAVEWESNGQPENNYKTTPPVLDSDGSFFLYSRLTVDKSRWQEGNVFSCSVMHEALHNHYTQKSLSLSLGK
light: B3 light
B11: BCP-33 (Keytruda-Fab VH-CH1-hIgG1 hinge-A34311-IgG1 Fc) (bispecific antibody)
heavy: not shown
light: B3 light
B12: BCP-35 (Keytruda-Fab VH-CH1-hIgG1 hinge-A34311-CH1-IgG4 Fc, Keytruda-Fab VL-CL-hIgG1 hinge-A34311-CL) (bispecific antibody)
heavy: not shown
light: EIVLTQSPATLSLSPGERATLSCRASKGVSTSGYSYLHWYQQKPGQAPRLLIYLASYLESGVPARFSGSGSGTDFTLTISSLEPEDFAVYYCQHSRDLPLTFGGGTKVEIKRTVAAPSVFIFPPSDEQLKSGTASVVCLLNNFYPREAKVQWKVDNALQSGNSQESVTEQDSKDSTYSLSSTLTLSKADYEKHKVYACEVTHQGLSSPVTKSFNRGECEPKSCDKTHTCPPCPQVKLEESGGGLVLPGESLRLSCEASGRTITTITMGWFRQAPGKERQFVASHSWTDNNPYYADSVKGRFIISRDNAGNRVYLQMHSLEPEDTAVYYCAATARRSFVGRQWYTEARQYDYWGQGTQVTVSSRTVAAPSVFIFPPSDEQLKSGTASVVCLLNNFYPREAKVQWKVDNALQSGNSQESVTEQDSKDSTYSLSSTLTLSKADYEKHKVYACEVTHQGLSSPVTKSFNRGEC
B13: BCP-36 (Keytruda-scFv-hIgG1 hinge-A34311-CH1-IgG1 Fc, A34311-CL as light chain fusion polypeptide) (bispecific antibody)
heavy: not shown
light: QVKLEESGGGLVLPGESLRLSCEASGRTITTITMGWFRQAPGKERQFVASHSWTDNNPYYADSVKGRFIISRDNAGNRVYLQMHSLEPEDTAVYYCAATARRSFVGRQWYTEARQYDYWGQGTQVTVSSRTVAAPSVFIFPPSDEQLKSGTASVVCLLNNFYPREAKVQWKVDNALQSGNSQESVTEQDSKDSTYSLSSTLTLSKADYEKHKVYACEVTHQGLSSPVTKSFNRGEC
B14: A34311 sdAb (VHH)
VHH: QVKLEESGGGLVLPGESLRLSCEASGRTITTITMGWFRQAPGKERQFVASHSWTDNNPYYADSVKGRFIISRDNAGNRVYLQMHSLEPEDTAVYYCAATARRSFVGRQWYTEARQYDYWGQGTQVTVSS
notes: also called A34311 (WT)
B15: BCP-311K (A34311-9GS-Keytruda) (bispecific antibody, human IgG4 S228P, kappa)
heavy: not shown
light: B3 light

What follows are binders tested against T1, CTLA-4-His protein (Homo sapiens (Human), UniProt P16410 37-161) (assay: SPR, CTLA-4-His immobilised, HCAb as analyte at 5-160 nM).
T1 construct: also called CTLA-4-His fusion protein; not shown: His tag
T1 sequence (P16410 37-161 limits assumed): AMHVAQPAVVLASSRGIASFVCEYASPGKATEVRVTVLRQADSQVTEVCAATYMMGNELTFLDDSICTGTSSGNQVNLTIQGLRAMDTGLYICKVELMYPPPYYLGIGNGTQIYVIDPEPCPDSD
B1: binds. B2: binds.

The binders below were run against T2, human CTLA-4 expressed on CHO cells (human, UniProt P16410 37-223) (assay: FACS on CHO cells expressing human CTLA-4).
T2 construct: also called CHO cells expressing human CTLA-4; CTLA-4 expressing CHO cells
T2 sequence (P16410 37-223): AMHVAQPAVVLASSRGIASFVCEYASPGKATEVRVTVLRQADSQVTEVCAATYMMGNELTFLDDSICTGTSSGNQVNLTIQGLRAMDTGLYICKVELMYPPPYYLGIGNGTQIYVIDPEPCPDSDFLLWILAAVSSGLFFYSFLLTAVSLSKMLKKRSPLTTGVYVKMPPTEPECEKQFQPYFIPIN
Protocol: (§1) Binding of HCAbs to human CTLA-4 expressed on CHO cells was determined using a fluorescence-activated cell sorting (FACS)-based assay. CHO cells expressing human CTLA-4 were dissociated from adherent culture flasks and mixed with varying concentrations of antibodies (in a 96-well plate). […] The mixture was equilibrated for 30 minutes at room temperature, then washed three times with FACS buffer (PBS containing 1% BSA). Fluorescein isothiocyanate (FITC)-conjugated anti-human κ antibody (Jackson ImmunoResearch) was then added and incubated for 15 minutes at room temperature, serving as a secondary antibody. Cells were washed again with FACS buffer and analyzed by flow cytometry. Data were analyzed with Prism (GraphPad Software, San Diego, Calif.) using non-linear regression, and EC₅₀ values were calculated.
B3: binds. B4: binds. B5: binds.

What follows are binders tested against T1, CTLA-4-His protein (assay: SPR, antibody captured by Fc, CTLA-4-His as analyte).
Protocol: Different concentrations of the BABP samples were prepared starting at 200 nM with 3-fold serial dilution. Each BABP sample was immobilized on the sensor chip through the Fc capture method. Antigen CTLA-4-His was used as the analyte. The dissociation (kd) and association (kₐ) rate constants were obtained using the BIACORE® T200 evaluation software. The apparent equilibrium dissociation constants (KD) were calculated from the ratio of kd over kₐ.
With B6 the Kd was 11 nM. B7 gave a Kd of 4.8 nM. B8 showed a Kd of 39.3 nM. In the case of B9, the Kd is reported as 4.3 nM. For B10, the Kd was 4.1 nM. With B11 the Kd was 9.2 nM. In the case of B12, the Kd is reported as 7.2 nM. B13 gave a Kd of 6.1 nM.

Each binder was assayed against T3, human PD-1 expressed on CHO cells (human, UniProt Q15116 25-288) (assay: FACS on CHO cells expressing human PD-1).
T3 construct: whole, on cells; Also used here for PD-1 on primary T cells (MLR) and on reporter Jurkat cells in the functional rows; also called CHO cells expressing human PD-1
T3 sequence (Q15116 25-288): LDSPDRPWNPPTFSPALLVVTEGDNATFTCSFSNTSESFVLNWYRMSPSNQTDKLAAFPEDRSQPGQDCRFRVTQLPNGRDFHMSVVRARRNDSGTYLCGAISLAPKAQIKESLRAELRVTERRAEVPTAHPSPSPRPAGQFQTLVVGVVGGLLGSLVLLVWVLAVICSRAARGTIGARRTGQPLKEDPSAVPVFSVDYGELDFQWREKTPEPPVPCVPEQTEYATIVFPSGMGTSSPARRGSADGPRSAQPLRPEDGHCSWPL
Protocol: (§2) CHO cells expressing human PD-1 were dissociated from adherent culture flasks and mixed with varying concentrations of antibodies (both in a 96-well plate). […] Human IgG was used as a negative binding control. The mixture was equilibrated for 30 minutes at room temperature, washed three times with FACS buffer (PBS containing 1% BSA). FITC-conjugated anti-human kappa antibody (Jackson ImmunoResearch) used as secondary antibody was then added and incubated for 15 minutes at room temperature. Cells were washed again with FACS buffer and analyzed by flow cytometry. Data were analyzed with Prism (GraphPad Software, San Diego, Calif.) using non-linear regression, and EC₅₀ values were calculated.
B3: binds. B4: binds. B5: binds.

Target: T2, human CTLA-4 expressed on CHO cells
Experiment: FACS on CHO cells expressing human CTLA-4
Remark: another data set of the same source
Protocol: as §1
BABP samples were prepared (starting at 1 μM, 3-fold serial dilution with 10 concentrations) as primary antibody for FACS analysis.
B6 gave an EC50 of 16.4 nM. In the case of B7, the EC50 is reported as 26.6 nM. Binder B8 has an EC50 of 17.7 nM. Binder B9 has an EC50 of 31.2 nM. With B10 the EC50 was 71.7 nM. Binder B11 has an EC50 of 48 nM. B12 was tested, and the EC50 was 20.4 nM. Work on B13 yielded an EC50 of 26.4 nM.

These binders were tested against T4, PD-1-His protein (UniProt Q15116 25-167, limits assumed) (assay: SPR, antibody captured by Fc, PD-1-His as analyte).
T4 construct: not shown: His tag
T4 sequence (Q15116 25-167 limits assumed): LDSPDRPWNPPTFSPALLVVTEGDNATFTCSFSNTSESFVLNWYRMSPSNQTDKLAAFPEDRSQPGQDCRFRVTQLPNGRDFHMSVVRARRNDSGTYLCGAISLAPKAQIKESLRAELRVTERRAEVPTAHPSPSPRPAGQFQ
B6 was tested, and the Kd was 5.3 nM. B7 showed a Kd of 3.9 nM. B8 showed a Kd of 3.9 nM. Work on B9 yielded a Kd of 8 nM. With B10 the Kd was 7.5 nM. B11 gave a Kd of 8.1 nM. Work on B12 yielded a Kd of 7.3 nM. B13 was tested, and the Kd was 8.3 nM.

These binders were tested against T5, biotin-labeled hCTLA-4/Fc protein (human, UniProt P16410 37-161, biotin label in the FACS competition assays (sites not given)) (assay: FACS competition, biotin hCTLA-4/Fc on CHO cells expressing human B7-1).
T5 construct: also called CTLA-4 ECD (CTLA-4-Fc); CTLA-4-Fc (GenScript, Z03373-50)
T5 sequence (P16410 37-161): as the sequence (P16410 37-161 limits assumed) above
B14 gave an EC50 of about 14.5 nM.

Target: T3, human PD-1 expressed on CHO cells
Experiment: FACS on CHO cells expressing human PD-1
Remark: another data set of the same source
Protocol: as §2
BABP samples were prepared (starting at 1 μM, 3-fold serial dilution with 10 concentrations) as primary antibodies for FACS analysis.
Binder B6 has an EC50 of 5.2 nM. Binder B7 has an EC50 of 12.2 nM. Work on B8 yielded an EC50 of 2.7 nM. B9 showed an EC50 of 3.4 nM. Work on B10 yielded an EC50 of 8.1 nM. For B11, the EC50 was 1.5 nM. Binder B12 has an EC50 of 3 nM. Work on B13 yielded an EC50 of 1.8 nM.

The binders below were run against T1, CTLA-4-His protein (assay: SPR, antibody immobilised, CTLA-4-His as analyte).
B3: binds. B4: binds. B5: binds.

Each binder was assayed against T3, human PD-1 expressed on CHO cells (assay: FACS competition, biotin hPD-L1-Fc on CHO cells expressing human PD-1).
Protocol: The mixture was equilibrated for 30 minutes at room temperature, and washed three times with FACS buffer (PBS containing 1% BSA). PE/Cy5 Streptavidin secondary antibody was then added to the mixtures and incubated for 15 minutes at room temperature. Subsequently, the cells were washed with FACS buffer and analyzed by flow cytometry.
With B6 the IC50 was 2.3 nM. With B7 the IC50 was 8.8 nM. B8 was tested, and the IC50 was 4 nM. B9 gave an IC50 of 5.7 nM. Work on B10 yielded an IC50 of 4.3 nM. With B11 the IC50 was 2 nM. Work on B12 yielded an IC50 of 4.6 nM. With B13 the IC50 was 2 nM.

These binders were tested against T1, CTLA-4-His protein (assay: SPR, antibody immobilised on CM5, CTLA-4-His as analyte).
B15: binds.

Each binder was assayed against T5, biotin-labeled hCTLA-4/Fc protein (assay: FACS competition, biotin hCTLA-4-Fc on CHO cells expressing human B7-1).
Protocol: The mixture was equilibrated for 30 minutes at room temperature, and washed three times with FACS buffer (PBS containing 1% BSA). PE/Cy5 Streptavidin secondary antibody was then added to the mixtures and incubated for 15 minutes at room temperature. Subsequently, the cells were washed again with FACS buffer and analyzed by flow cytometry.
For B6, the IC50 was 11.7 nM. In the case of B7, the IC50 is reported as 8.6 nM. For B8, the IC50 was 33.3 nM. Binder B9 has an IC50 of 15.3 nM. B10 gave an IC50 of 14.6 nM. With B11 the IC50 was 26.3 nM. B12 was tested, and the IC50 was 17.5 nM. Work on B13 yielded an IC50 of 17.9 nM.
